Consider 32 molecules from patent US20240270846A1 (published 2024).

First the molecules themselves.
B1: GLS3000 N30L (Kabat) L chain altered form, one-arm antibody with CE115HA000 (antibody, human IgG1, kappa, L234A L235A, N297A, name in Kabat numbering)
heavy: QVQLVESGGGVVQPGRSLRLSCAASGFTFSNAWMHWVRQAPGKGLEWVAQIKAKSNNYATYYAESVKGRFTISRDDSKNSLYLQMNSLKTEDTAVYYCRYVHYGAYYGVDAWGQGTTVTVSSASTKGPSVFPLAPSSKSTSGGTAALGCLVKDYFPEPVTVSWNSGALTSGVHTFPAVLQSSGLYSLSSVVTVPSSSLGTQTYICNVNHKPSNTKVDKKVEPKSCDKTHTCPPCPAPEAAGGPSVFLFPPKPKDTLMISRTPEVTCVVVDVSHEDPEVKFNWYVDGVEVHNAKTKPREEQYASTYRVVSVLTVLHQDWLNGKEYKCKVSNKALPAPIEKTISKAKGQPREPQVYTLPPSRCELTKNQVSLSCAVKGFYPSDIAVEWESNGQPENNYKTTPPVLDSDGSFFLVSKLTVDKSRWQQGNVFSCSVMHEALHNHYTQKSLSLSPDYKDDDDK
chain: EPKSSDKTHTCPPCPAPELLGGPSVFLFPPKPKDTLMISRTPEVTCVVVDVSHEDPEVKFNWYVDGVEVHNAKTKPREEQYNSTYRVVSVLTVLHQDWLNGKEYKCKVSNKALPAPIEKTISKAKGQPREPQVCTLPPSRDELTKNQVSLWCLVKGFYPSDIAVEWESNGQPENNYKTTPPVLDSDGSFFLYSKLTVDKSRWQQGNVFSCSVMHEALHNRYTQKSLSLSP
light: DIVMTQSPLSLPVTPGEPASISCRSSQSLVHSNRLTYLHWYQQKPGQAPRLLIYKVSNRFSGVPDRFSGSGSGTDFTLKISRVEAEDVGVYYCGQGTQVPYTFGQGTKLEIKRTVAAPSVFIFPPSDEQLKSGTASVVCLLNNFYPREAKVQWKVDNALQSGNSQESVTEQDSKDSTYSLSSTLTLSKADYEKHKVYACEVTHQGLSSPVTKSFNRGEC
notes: one-arm antibody
B2: GLS3000 R24P (Kabat) L chain altered form, one-arm antibody with CE115HA000 (antibody, human IgG1, kappa, L234A L235A, N297A, name in Kabat numbering)
heavy: B1 heavy
chain: B1 chain
light: B1 light with R24P, L35N
notes: one-arm antibody
B3: GLS3000 N30Q (Kabat) L chain altered form, one-arm antibody with CE115HA000 (antibody, human IgG1, kappa, L234A L235A, N297A, name in Kabat numbering)
heavy: B1 heavy
chain: B1 chain
light: B1 light with L35Q
notes: one-arm antibody
B4: GLS3000 Q27D (Kabat) L chain altered form, one-arm antibody with CE115HA000 (antibody, human IgG1, kappa, L234A L235A, N297A, name in Kabat numbering)
heavy: B1 heavy
chain: B1 chain
light: B1 light with Q27D, L35N
notes: one-arm antibody
B5: GLS3000 R24Y (Kabat) L chain altered form, one-arm antibody with CE115HA000 (antibody, human IgG1, kappa, L234A L235A, N297A, name in Kabat numbering)
heavy: B1 heavy
chain: B1 chain
light: B1 light with R24Y, L35N
notes: one-arm antibody
B6: GLS3000 N30W (Kabat) L chain altered form, one-arm antibody with CE115HA000 (antibody, human IgG1, kappa, L234A L235A, N297A, name in Kabat numbering)
heavy: B1 heavy
chain: B1 chain
light: B1 light with L35W
notes: one-arm antibody
B7: GLS3000 R24G (Kabat) L chain altered form, one-arm antibody with CE115HA000 (antibody, human IgG1, kappa, L234A L235A, N297A, name in Kabat numbering)
heavy: B1 heavy
chain: B1 chain
light: B1 light with R24G, L35N
notes: one-arm antibody
B8: GLS3000 N30R (Kabat) L chain altered form, one-arm antibody with CE115HA000 (antibody, human IgG1, kappa, L234A L235A, N297A, name in Kabat numbering)
heavy: B1 heavy
chain: B1 chain
light: B1 light with L35R
notes: one-arm antibody
B9: GLS3000 R29D (Kabat) L chain altered form, one-arm antibody with CE115HA000 (antibody, human IgG1, kappa, L234A L235A, N297A, name in Kabat numbering)
heavy: B1 heavy
chain: B1 chain
light: B1 light with R34D, L35N
notes: one-arm antibody
B10: GLS3000 R24A (Kabat) L chain altered form, one-arm antibody with CE115HA000 (antibody, human IgG1, kappa, L234A L235A, N297A, name in Kabat numbering)
heavy: B1 heavy
chain: B1 chain
light: B1 light with R24A, L35N
notes: one-arm antibody
B11: GLS3000 R24D (Kabat) L chain altered form, one-arm antibody with CE115HA000 (antibody, human IgG1, kappa, L234A L235A, N297A, name in Kabat numbering)
heavy: B1 heavy
chain: B1 chain
light: B1 light with R24D, L35N
notes: one-arm antibody
B12: GLS3000 R29G (Kabat) L chain altered form, one-arm antibody with CE115HA000 (antibody, human IgG1, kappa, L234A L235A, N297A, name in Kabat numbering)
heavy: B1 heavy
chain: B1 chain
light: B1 light with R34G, L35N
notes: one-arm antibody
B13: GLS3000 N53A (Kabat) L chain altered form, one-arm antibody with CE115HA000 (antibody, human IgG1, kappa, L234A L235A, N297A, name in Kabat numbering)
heavy: B1 heavy
chain: B1 chain
light: B1 light with L35N, N58A
notes: one-arm antibody
B14: GLS3000 Q27E (Kabat) L chain altered form, one-arm antibody with CE115HA000 (antibody, human IgG1, kappa, L234A L235A, N297A, name in Kabat numbering)
heavy: B1 heavy
chain: B1 chain
light: B1 light with Q27E, L35N
notes: one-arm antibody
B15: GLS3000 Q27R (Kabat) L chain altered form, one-arm antibody with CE115HA000 (antibody, human IgG1, kappa, L234A L235A, N297A, name in Kabat numbering)
heavy: B1 heavy
chain: B1 chain
light: B1 light with Q27R, L35N
notes: one-arm antibody
B16: GLS3000 R29P (Kabat) L chain altered form, one-arm antibody with CE115HA000 (antibody, human IgG1, kappa, L234A L235A, N297A, name in Kabat numbering)
heavy: B1 heavy
chain: B1 chain
light: B1 light with R34P, L35N
notes: one-arm antibody
B17: GLS3000 R24T (Kabat) L chain altered form, one-arm antibody with CE115HA000 (antibody, human IgG1, kappa, L234A L235A, N297A, name in Kabat numbering)
heavy: B1 heavy
chain: B1 chain
light: B1 light with R24T, L35N
notes: one-arm antibody
B18: GLS3000 Q27P (Kabat) L chain altered form, one-arm antibody with CE115HA000 (antibody, human IgG1, kappa, L234A L235A, N297A, name in Kabat numbering)
heavy: B1 heavy
chain: B1 chain
light: B1 light with Q27P, L35N
notes: one-arm antibody
B19: GLS3000 N30P (Kabat) L chain altered form, one-arm antibody with CE115HA000 (antibody, human IgG1, kappa, L234A L235A, N297A, name in Kabat numbering)
heavy: B1 heavy
chain: B1 chain
light: B1 light with L35P
notes: one-arm antibody
B20: GLS3000 R29L (Kabat) L chain altered form, one-arm antibody with CE115HA000 (antibody, human IgG1, kappa, L234A L235A, N297A, name in Kabat numbering)
heavy: B1 heavy
chain: B1 chain
light: B1 light with R34L, L35N
notes: one-arm antibody
B21: GLS3000 R29I (Kabat) L chain altered form, one-arm antibody with CE115HA000 (antibody, human IgG1, kappa, L234A L235A, N297A, name in Kabat numbering)
heavy: B1 heavy
chain: B1 chain
light: B1 light with R34I, L35N
notes: one-arm antibody
B22: GLS3000 R24Q (Kabat) L chain altered form, one-arm antibody with CE115HA000 (antibody, human IgG1, kappa, L234A L235A, N297A, name in Kabat numbering)
heavy: B1 heavy
chain: B1 chain
light: B1 light with R24Q, L35N
notes: one-arm antibody
B23: GLS3000 N30M (Kabat) L chain altered form, one-arm antibody with CE115HA000 (antibody, human IgG1, kappa, L234A L235A, N297A, name in Kabat numbering)
heavy: B1 heavy
chain: B1 chain
light: B1 light with L35M
notes: one-arm antibody
B24: GLS3000 N30T (Kabat) L chain altered form, one-arm antibody with CE115HA000 (antibody, human IgG1, kappa, L234A L235A, N297A, name in Kabat numbering)
heavy: B1 heavy
chain: B1 chain
light: B1 light with L35T
notes: one-arm antibody
B25: GLS3000 R29A (Kabat) L chain altered form, one-arm antibody with CE115HA000 (antibody, human IgG1, kappa, L234A L235A, N297A, name in Kabat numbering)
heavy: B1 heavy
chain: B1 chain
light: B1 light with R34A, L35N
notes: one-arm antibody
B26: GLS3000 N30S (Kabat) L chain altered form, one-arm antibody with CE115HA000 (antibody, human IgG1, kappa, L234A L235A, N297A, name in Kabat numbering)
heavy: B1 heavy
chain: B1 chain
light: B1 light with L35S
notes: one-arm antibody
B27: GLS3000 N30Y (Kabat) L chain altered form, one-arm antibody with CE115HA000 (antibody, human IgG1, kappa, L234A L235A, N297A, name in Kabat numbering)
heavy: B1 heavy
chain: B1 chain
light: B1 light with L35Y
notes: one-arm antibody
B28: GLS3000 R29S (Kabat) L chain altered form, one-arm antibody with CE115HA000 (antibody, human IgG1, kappa, L234A L235A, N297A, name in Kabat numbering)
heavy: B1 heavy
chain: B1 chain
light: B1 light with R34S, L35N
notes: one-arm antibody
B29: GLS3000 N30V (Kabat) L chain altered form, one-arm antibody with CE115HA000 (antibody, human IgG1, kappa, L234A L235A, N297A, name in Kabat numbering)
heavy: B1 heavy
chain: B1 chain
light: B1 light with L35V
notes: one-arm antibody
B30: GLS3000 R24E (Kabat) L chain altered form, one-arm antibody with CE115HA000 (antibody, human IgG1, kappa, L234A L235A, N297A, name in Kabat numbering)
heavy: B1 heavy
chain: B1 chain
light: B1 light with R24E, L35N
notes: one-arm antibody
B31: GLS3000 Q27L (Kabat) L chain altered form, one-arm antibody with CE115HA000 (antibody, human IgG1, kappa, L234A L235A, N297A, name in Kabat numbering)
heavy: B1 heavy
chain: B1 chain
light: B1 light with Q27L, L35N
notes: one-arm antibody
B32: GLS3000 R24S (Kabat) L chain altered form, one-arm antibody with CE115HA000 (antibody, human IgG1, kappa, L234A L235A, N297A, name in Kabat numbering)
heavy: B1 heavy
chain: B1 chain
light: B1 light with R24S, L35N
notes: one-arm antibody

Residue numbers refer to the chain shown, from its start. Names may count otherwise.
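Further: antibody variants flowed as analyte over CD3 epsilon homodimer amine-coupled to a CM4 chip, at 25 °C in HBS-EP+ running buffer, fitted with Biacore T200 Evaluation Software.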

In the assay the target is T1, CD3 epsilon homodimer protein (UniProt P07766 23-126).
T1 construct: construct not described; homodimer as printed; also called CD3 (CD3 epsilon)
T1 sequence (P07766 23-126): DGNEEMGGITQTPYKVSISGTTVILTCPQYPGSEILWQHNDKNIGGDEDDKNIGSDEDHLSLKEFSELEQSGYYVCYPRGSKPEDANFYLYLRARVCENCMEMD
The assay is described as follows: SPR Biacore T200, CD3 epsilon homodimer immobilized; vs unaltered GLS3000. (In general: In SPR one partner is held on a chip, and binding of the other changes the refractive index at the surface.)
In the case of B1, the “KD ratio to GLS3000 (Affinity up)” value turned out to be 1.19.

As for B2, the “KD ratio to GLS3000 (Affinity up)” value came to 0.34.

Turning to B3, the “KD ratio to GLS3000 (Affinity up)” value is 1.

Consider B4, for which the “KD ratio to GLS3000 (Affinity up)” value is 0.89.

B5: the “KD ratio to GLS3000 (Affinity up)” value stood at 0.94.

On to B6, for which the “KD ratio to GLS3000 (Affinity up)” value is 0.97.

On to B7, for which the “KD ratio to GLS3000 (Affinity up)” value turned out to be 0.92.

Take B8: the “KD ratio to GLS3000 (Affinity up)” value came out at 1.73.

On to B9, for which the “KD ratio to GLS3000 (Affinity up)” value was 1.58.

Regarding B10, the “KD ratio to GLS3000 (Affinity up)” value was 1.

Regarding B11, the “KD ratio to GLS3000 (Affinity up)” value is 0.83.

Consider B12, for which the “KD ratio to GLS3000 (Affinity up)” value came out at 0.62.

Regarding B13, the “KD ratio to GLS3000 (Affinity up)” value amounted to 0.82.

With B14, the “KD ratio to GLS3000 (Affinity up)” value came out at 0.99.

Take B15: the “KD ratio to GLS3000 (Affinity up)” value worked out at 1.06.

Take B16: the “KD ratio to GLS3000 (Affinity up)” value came out at 14.

As to B17, the “KD ratio to GLS3000 (Affinity up)” value came to 1.03.

B18: the “KD ratio to GLS3000 (Affinity up)” value was 2.16.

On to B19, for which the “KD ratio to GLS3000 (Affinity up)” value is 12.1.

As for B20, the “KD ratio to GLS3000 (Affinity up)” value was determined as 0.9.

As to B21, the “KD ratio to GLS3000 (Affinity up)” value is 1.6.

On to B22, for which the “KD ratio to GLS3000 (Affinity up)” value stood at 0.87.

In the case of B23, the “KD ratio to GLS3000 (Affinity up)” value amounted to 1.2.

As to B24, the “KD ratio to GLS3000 (Affinity up)” value stood at 12.7.

Turning to B25, the “KD ratio to GLS3000 (Affinity up)” value turned out to be 1.15.

Regarding B26, the “KD ratio to GLS3000 (Affinity up)” value was 10.6.

Consider B27, for which the “KD ratio to GLS3000 (Affinity up)” value was 1.03.

For the molecule B28, the “KD ratio to GLS3000 (Affinity up)” value is 1.05.

Take B29: the “KD ratio to GLS3000 (Affinity up)” value was 2.62.

As to B30, the “KD ratio to GLS3000 (Affinity up)” value came to 0.89.

B31: the “KD ratio to GLS3000 (Affinity up)” value was found to be 0.86.

In the case of B32, the “KD ratio to GLS3000 (Affinity up)” value amounted to 0.97.
